In patent US20250011406A1 (US Dept. of Health and Human Services, published 2025):
Residue numbers refer to the chain shown, from its start. No end group written: not given here.

B1: inferred germline CIS43 (iGL-CIS43) mAb (IgG) (antibody, V domains shown)
VH: QVQLVQSGAEVKKPGASVKVSCKASGYTFTSYAMHWVRQAPGQRLEWMGWINAGNGNTKYSQKFQGRVTITRDTSASTAYMELSSLRSEDTAVYYCALLTVVTPDDAFDIWGQGTMVTVSS
VL: not shown
notes: also called CIS43 gHgL; iGL-CIS43_UCA
B2: iGL-CIS43-HL.K28.m43.151 Fab (Fab, V domains shown)
VH: B1 VH with Q3H, M34I, N52K, A53G, K59R, G66D, V102I
VL: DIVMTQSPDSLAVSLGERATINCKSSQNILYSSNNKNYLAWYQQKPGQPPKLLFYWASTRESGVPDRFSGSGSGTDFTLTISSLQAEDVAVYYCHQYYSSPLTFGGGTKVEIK
notes: also called m43_HH28K.17
B3: iGL-CIS43-HL.K28.m42.127 Fab (Fab, V domains shown)
VH: B1 VH with M34I, N52K, K59R, G66D, V102I, A107T
VL: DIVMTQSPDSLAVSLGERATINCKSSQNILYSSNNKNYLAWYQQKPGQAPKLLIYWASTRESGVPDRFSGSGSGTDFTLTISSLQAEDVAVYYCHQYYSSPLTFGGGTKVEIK
notes: also called m42_HH28K.13
B4: m43.160 Fab (Fab, V domains shown)
VH: B1 VH with M34I, N52K, K59R, V93G, V102I
VL: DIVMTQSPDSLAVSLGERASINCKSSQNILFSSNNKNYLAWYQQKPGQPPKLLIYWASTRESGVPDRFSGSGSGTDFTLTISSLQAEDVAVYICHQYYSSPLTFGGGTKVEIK
notes: also called m43_HH28K.26
B5: inferred germline CIS43 (iGL-CIS43) Fab (Fab, V domains shown)
VH: B1 VH
VL: not shown
notes: as for B1
B6: mature CIS43 Fab (Fab, V domains shown)
VH: B1 VH with M34I, N52K, K59R, G66D, A76T, S77T, V102L
VL: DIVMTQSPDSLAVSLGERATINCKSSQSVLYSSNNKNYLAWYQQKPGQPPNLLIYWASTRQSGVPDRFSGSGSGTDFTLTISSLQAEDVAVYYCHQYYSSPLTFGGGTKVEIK
notes: also called CIS43 mature; CIS43 WT

Biological target: T1, NPDP19-KLH conjugate (Plasmodium falciparum, also: conjugated to KLH carrier via maleimide linker, site not given here)
T1 construct: not shown: KLH carrier protein (about 390 kDa)
T1 peptide: KQPADGNPDPNANPNVDPN
Experiment: ELISA on NPDP19-KLH
B1: binds.

Biological target: T2, peptide NANP5, penta-NANP repeat (not fully specified; biotinylated)
T2 construct: Printed only as the formula (NANP)5 / NANP5
T2 peptide: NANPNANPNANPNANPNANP
Experiment: BLI (Octet), Fab on biotinylated NANP5 peptide
Description: (§1) Affinity measurements by BLI. Antibody Fab binding affinity to various ligands were measured using biolayer interferometry on an Octet Red384 instrument (fortdBio) with streptavidin capture biosensors (fortdBio) in solid black tilt-well 96-well plates (Geiger Bio-One). Assays were performed with agitation at 25° C. […] In all Octet measurements, parallel correction to subtract systematic baseline drift was carried out by subtracting the measurements recorded for a loaded sensor incubated in PBS. Data analysis was carried out using Octet software, version 9.0. Experimental data were fitted globally with a 1:1 Langmuir model of binding.
B2 gave a Kd of 715 nM. For B3, the Kd was 952 nM. In the case of B4, the Kd is reported as 957 nM. With B5 the Kd was 9650 nM. B6 showed a Kd of 411 nM.

These binders were tested against T3, recombinant Plasmodium falciparum circumsporozoite protein (rPfCSP), biotinylated (Plasmodium falciparum, UniProt P19597 21-375) (assay: BLI (Octet), Fab on biotinylated rPfCSP; 2-component fit, primary KD).
T3 sequence (P19597 21-375 limits assumed): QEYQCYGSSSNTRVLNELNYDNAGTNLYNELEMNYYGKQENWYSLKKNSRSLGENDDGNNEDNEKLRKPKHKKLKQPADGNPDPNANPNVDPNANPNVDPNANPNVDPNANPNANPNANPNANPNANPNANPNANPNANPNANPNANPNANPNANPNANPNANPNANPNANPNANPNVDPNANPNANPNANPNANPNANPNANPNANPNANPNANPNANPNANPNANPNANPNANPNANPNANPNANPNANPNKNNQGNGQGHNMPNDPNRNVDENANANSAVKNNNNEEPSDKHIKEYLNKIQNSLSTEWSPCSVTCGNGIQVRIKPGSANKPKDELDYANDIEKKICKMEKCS
Description: as §1
Work on B2 yielded a Kd of 38.3 nM. B3 was tested, and the Kd was 31.6 nM. Binder B4 has a Kd of 36.8 nM. B5 showed a Kd of 679 nM. In the case of B6, the Kd is reported as 45.2 nM.

What follows are binders tested against T3, recombinant Plasmodium falciparum … (assay: BLI (Octet), Fab on biotinylated rPfCSP; 2-component fit, second KD (KD2)).
Description: as §1
Work on B2 yielded a Kd of 1700 nM. Binder B3 has a Kd of 1980 nM. In the case of B4, the Kd is reported as 1820 nM. Binder B5 has a Kd of 5050 nM. With B6 the Kd was 1330 nM.

These binders were tested against T4, mature CIS43 antibody (IgG) (assay: competition ELISA (MSD): peptide pre-incubated with CIS43, read-out CIS43 bound to plate-bound rPfCSP).
T4 construct: also called CIS43 WT
T4 sequence (heavy, as listed by the source, chain 1 of 2): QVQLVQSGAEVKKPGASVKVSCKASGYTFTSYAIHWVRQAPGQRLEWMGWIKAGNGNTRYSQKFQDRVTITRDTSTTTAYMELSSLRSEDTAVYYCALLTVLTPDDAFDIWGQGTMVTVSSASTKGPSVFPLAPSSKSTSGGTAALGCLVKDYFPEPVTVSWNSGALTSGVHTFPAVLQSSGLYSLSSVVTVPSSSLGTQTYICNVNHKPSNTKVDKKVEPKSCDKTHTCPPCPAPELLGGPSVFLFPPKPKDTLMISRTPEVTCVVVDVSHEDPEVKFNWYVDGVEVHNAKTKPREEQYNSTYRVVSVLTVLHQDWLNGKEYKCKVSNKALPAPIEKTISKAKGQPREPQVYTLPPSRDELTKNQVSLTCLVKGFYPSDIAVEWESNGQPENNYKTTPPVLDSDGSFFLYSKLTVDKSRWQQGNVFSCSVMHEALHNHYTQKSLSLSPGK
T4 sequence (light, as listed by the source, chain 2 of 2): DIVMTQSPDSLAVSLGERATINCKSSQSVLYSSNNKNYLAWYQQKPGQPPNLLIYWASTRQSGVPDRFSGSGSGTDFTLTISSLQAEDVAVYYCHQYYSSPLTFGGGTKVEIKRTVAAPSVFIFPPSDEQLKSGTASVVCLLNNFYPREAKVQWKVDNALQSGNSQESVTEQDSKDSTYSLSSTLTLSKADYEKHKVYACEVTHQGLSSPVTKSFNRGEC
Description: Peptides were all 15 amino acids in length, overlapping by 11 residues, and numbered according to their position on the protein. Briefly, streptavidin-coated plates (Meso Scale Discovery, MSD) were blocked with 5% BSA in PBS for 30 min at room temperature (RT), washed five times (wash buffer, 0.05% Tween-20 in PBS), then coated with biotinylated-recombinant PfCSP (0.2 μg/mL, Genscript) in PBS with 1% BSA, and allowed to incubate for 1 h at RT. […] Plates were incubated for 1 h at RT, washed five times, then incubated for an additional 1 h at RT with 1 μg/mL of appropriate secondary (either anti-human or anti-mouse) IgG SULFO-TAG (Meso Scale Discovery) in PBS with 1% BSA/0.05% Tween-20. After washing, plates were read using 1×MSD Read T Buffer (Meso Scale Discovery) on an MSD SECTOR © Imager 6000 instrument.
NANPNANPNVDPNAN (also called PfCSP peptide 43) [43: NANPNANPNVDPNAN]: binds. NANPNVDPNANPNAN (also called PfCSP peptide 44) [44: NANPNVDPNANPNAN]: binds. NVDPNANPNANPNAN (also called PfCSP peptide 27) [27: NVDPNANPNANPNAN]: binds.
